Source: patent US20090163410A1, “Novel Peptides and the Biological Use Thereof” (priority 2005, published 2009)

Key:
[1] = target: peptide-phage 08B2S3 (fd phage) (UniProt P03661)
[2] = target: peptide-phage 07B2S3 (fd phage) (UniProt P03661)
[3] = target: HIV-1 (Lai) Nef/SH3-Hck interaction (Human immunodeficiency virus type 1 group M subtype B, UniProt P03406); details: for repression of the Nef-SH3 interaction as measured in the cell assay: COS-7 cells (FIG. 5B)
Text: This assay makes it possible to integrate the cellular toxicity and bioavailability parameters by means of quantitative and functional reading of the interaction between two protein partners.
The Checkmate™ commercial system (Promega) was adapted to the HIV-1 (Lai) Nef/SH3-Hck pair in COS-7 cell culture (FIG. 5). This system combines the expression of firefly luciferase under the control of the interaction between Nef and the SH3 domain of Hck, and the expression, which is independent, of renilla luciferase, a control for cell viability. The ratio of the intensity of these two luciferases makes it possible to quantify the activity of a Nef-SH3-interaction competitor capable of penetrating into the cell and the half-life of which is sufficient over the time period of the analysis. Other protein interactions are also reconstituted in this assay: one, which is non-SH3 (between Id and MyoD), in order to exclude the compounds having a nonspecific activity on the luciferase expression, and the other between SH3 of Hck and the SAM68 protein, in order to identify the compounds which interact via the SH3 domain and not via Nef.
The cells are transferred using Fugene6 (Roche), according to the distributor's protocol. Briefly, the plasmids PG5 (300 ng), pAct or pActNef (400 ng), pBindHckmutated or pBindHck (100 ng) and pbcks (200 ng) are mixed, and then the Fugene 6 (3 μl diluted in 100 μl of DMEM culture medium) is added. The plasmids/Fugene6 mixture is left to react for a period of 15 min at ambient temperature, and is then deposited dropwise into the cell culture well.
After expression for 24H, the cells are harvested by treatment with trypsin (Gibco, ref 25300-054), washed, and then dispensed into 96-well plates (reference 353072, Beckton Dickinson). 50 μl of DMEM culture medium are then added to each well.
The activity of a candidate inhibitor compound is tested by adding 25 μl of this diluted compound to the well already containing 50 μl of the cell culture, and the luciferase activity is determined 24 H later in each well using the DualGlo assay kit according to the recommendations of the supplier (Promega).

For “NefΔ1-57 protein (Nef HIV-1 LAI, residues 1 to 57 deleted) (from UniProt P03406 58-206)”, the IC50 [1] was 1000 nM and the IC50 [2] was 1000 nM.

For “R Ahx R Ahx R Ahx R Ahx R Ahx R Ahx R W P A W L P [SEQ ID No. 19]”, the “repression of the Nef-SH3 interaction as measured in the cell assay” value (“repression of the Nef-SH3 interaction” below) [3] was “repress the Nef-SH3 interaction as measured in the cell assay, in a dose-dependent manner”.

“R Q I K I W F Q N R Nle K W K K [SEQ ID No. 15]” was tested, and the “repression of the Nef-SH3 interaction” value [3] was “repress the Nef-SH3 interaction as measured in the cell assay, in a dose-dependent manner”.

In the case of “R R R R R R R R W P A W L P [SEQ ID No. 17]”, the “repression of the Nef-SH3 interaction” value [3] is reported as “repress the Nef-SH3 interaction as measured in the cell assay, in a dose-dependent manner”.

In the case of W P A W L P (WPAWLP) [SEQ ID No. 11], the “biological activity on the Nef-SH3 interaction (firefly/renilla luciferase ratio)” value ([3]; COS-7 cells, 10 to 50 μM of the peptide, compared with a control molecule, various times and periods of addition (FIG. 5B)) is reported as “does not show any notable biological activity at low concentration”.
